Assay results published in the DeepSol protein solubility set.

assay: soluble on expression in E. coli; label from the status in PepcDB or PDB records

Sequence | soluble on expression in E. coli
GPGSTGRSQATRTQERQEGRKKDMESKGTPTTRHPHVLTTARRKKETLWHGTPKRQTNPTTAVASKSEVVATSPHDGGSGRLPEDSQEATDEVVTLSSASSPLSRTLDGSCMPFAPPLGSDMAVTVACGPVNRTSLLSTEEKTAHAILGQADAMTDRRRSEEMLYYLEAARALREVTSGVEAREQCLRDEIERQSTLYSAKKLDLAEKQKVYERLHESTLRLTRNVRRIDSENDRIRDRLTKLQMTIEKMESRKLPRHIQQDVDRVVRCESVPSWQGANQRVGGCEAIVPMRSVGSVAKNTLMTELEMYTRKLRSAEVRHDKLIKELQLAVARRKGRAAAYNSFGASLSFSGYSGMGNRDGSFLTDSVGESIAIQQLERMIDDSLIRCK | not soluble
MQNPQNLIWIDLEMTGLDPDRDVIIEMATIVTDSDLNTLAEGPVIAIHQPEEILAGMDEWNTRQHGQSGLTQRVRESTVSMAEAEAQTLAFLEQWVPKRSSPICGNSICQDRRFLYRHMPRLEGYFHYRNLDVSTLKELAARWAPQVRESFKKGNTHLALDDIRESIAELRHYRDHFIKL | not soluble
MGGSHHHHHHGMASALVRISKPKTFQAYLDDCHRRYSCAHCRAHLANHDDLISKSFQGSQGRAYLFNSVVNVGCGPAEERVLLTGLHAVADIHCENCKTTLGWKYEQAFESSQKYKEGKYIIELNHMIKDNGWD | not soluble
MGSDKIHHHHHHMSVLTVTGLSQRFLDKVLYQDASFQVNIEDHLGVIGQNGVGKSTLIKILTGAQTPDAGKIVWQKHLHVGYLDQYANLVPGQTVIEFLRTAFSDLYRKEAKMNQIYADYANHPDDDLLAKAGELQQELEAGDFYDLETTIQTVAEGLGITAMGMDHPVEALSGGQRSKLILAKLLLEKPDMLLLDEPTNYLDVSHIAWLTDWLQNFEGAFIVISHDFDFLENVTNAVLDIEFGQITKYTGTLKQAMRQKEADHETYLKAFAKQQETIKKTEAFIRKFKAGTRATMAKSREKQLARMDKLTPPGTRSKAHLAFPYAPVNRQILVDVNDLVVGYDKPLLQPMNFSVAKDQIIAFEGFNGVGKSTLLKTLLGLLPAISGNVEIADNVVFGYYEQELHWDQPKQSPVQYLEQRFPALTQKTVRQVLSRTALTSEEANNPLTMLSGGEQAKVKLADLMLQTTNILVMDEPTNHLDDDTKNALREGLQQYPGAVLLVSHEAGFYDSSWVDTVVNVEQLQVKA | not soluble
MAHHHHHHMTDVDQWKCASFKQEEDHSEATDALLERINATAIPVLLRSTNSSLDDLVNELLALEKMARLGGDALSAKRLVVEILRIYRVHGDHEKMLDTLETLMRKRGQTKQSQGAMIAECGVLLTEGNLSREQRRIVLERVVHLTDSRIHVELEHVRFAIDLAKLMEDDGEKRAACDLLSGLHVETVTNMPRVEKLDALNRLIRLCLELEDYELARLVSRRINHRALSRPGALQAKLKYFELMREYFAQRRSYFHVARCWYETFLSETDETACVSALSSMAVHYLIAEHSSPKELEDHAECAAFSPATKFADRTAAIQGITTTLRKRLEENPQLQYLLEKFTSIELIRERVADDVEALCINHPQLAGFPERQALLRSRCSEHDLLVISRFYRRLRLVRLAELVGLTPQHTEEFLMMMVASRTLYAKIDRVDGLVVFEANKNANDVVTAWDEAVGRSVALLDKVSHLIVKERMLHNITLAQLQQSGATAS | not soluble
LHRIVDKMHDTSTGIRPSPNMEQGSTYKKTFLGSSLVDWLISSNFAASRLEAVTLASMLMEENFLRPVGVRSMGAIRSGDLAEQFLDDSTALYTFAESYKKKVSSKE | soluble
MSDEVPEILLAHYLKTLKLPTFQREYQKLARLCATEGVDHVEYLLRLSEREMIERDRRKVERRIKAARFPVVKSLDSFDFAAIPKLNKMQVLELARCEWIERRENVIALGPSGTGKTHVALGLGLAACQKGLSVGFTTAAALVSEMMEARDERRLLRFQKQMAAYQLLIIDELGFVPLSKTGAELLFELISQRYERGATLITSNLPFDEWTETLGSERLTGALLDRITHHVNILEMNGDSYRLAQSRARKAGAAALEHHHHHH | soluble
MGSDKIHHHHHHMTAATSVRAQAREEDLSVKEILDSRWFQPEMFKTLDYVKGFVGAKVIFQMLKLGVFDDLLAGKTLEEIASGRSLDPYLLRTVFEYLSVEGLLVKEGRGGGASFRLSDYGSRIKHYEGWFNILIGGYDNIFSNIGAMLEEGIGGYKRDGKWVGVGSCQISKYDTIPITKAFIESVKPDAKQIVDFGCGNALYLCTLAKELGDIKAVGIEPDTSAYEAGLKKVAEMGLQDQVRLVNVDALDYEIDEQPDFILFGFVLQEIIAQIGRPAFIEYLRKLGRKFADSYLMVMEVDYDIDNREVMHSPMGRGYYNPYFLLHPFTNQLLLPKREWDEIFAQAGYDVVRDEVTSPKADPSGFGICYVLKYRGAHC | not soluble
MGSDKIHHHHHHMSGFLTFDFENQAVRAFEHDGQEWFVAVDVCRCLRLENSRQALTRLSDDEKRSCNLNTLTDSKGIIFNAINDSDGIRAGNPNATIVNEPGLYRLIFTSTKPEAERLKRFVFHEVLPALRHTGCFAPEPVIDWEIAREQLSLVREARLAHGKEAAAALWRELGLPMPKDETSDKERRQAQGLMKYVYDFIDECMVFDQKAEVTGKEVYQRYQQWSATNNAPYIMNSSFGRFLIRAGIVKRHVSTGSRYIGVRLKHHIQITDQSS | not soluble
MLVFISNSRLSESEVQKLRDKHLIDDFIQRENKGYDFAAWHDGMEFVGFENLKQYDSVTVMNDTCFGPLWDMAPIYDNYESNPNVDFWGMTNHQGIKAGDIYIHEHLQSYFISFKKRLVESSVFQKFWKSVESFEDVQKVIDNYETLYTKKFRDAGFNYESILNTIPLNDKFFHSNFTIHYPHVLLDTGVPFIKVKTFDLTQHLAPYLLKEIEKRTDYPVELILSHMSDMSLPTPPYLLDRKVIEKSSQTYSDTKKIAVHLHTYYVDLLEDFLKQFENFHFTYDLFLTTDSEDKKAEIQSILDKNGKVARIFITGNRGRDVIPMLKLKDELSAYDYIGHFHTKKSPEYPYWVGDSWRNELFSMLIQPADNIIANLERDDRLGLVIADIPSFFRYTKIVDPWNENRFAEGMNDLWERMDLGRDIDFDKMNTFIMSYGTFIWFKYDALKPLFDLDLQDEEIPAEPIPQHTILHSIERILVYLAWARRYDYAIAKNDIYITPFVDNVVLNIRPDTLPNTYINFDNIGGIKGALKYIIVGPLEHHHHHH | not soluble
MVSCENLWQQALAILATQLTKPAFDTWIKASVLISLGDGVATIQVENGFVLNHLQKSYGPLLMEVLTDLTGQEITVKLITDGLEPHSLIGQESSLPMETTPKNATALNGKYTFSRFVVGPTNRMAHAASLAVAESPGREFNPLFLCGGVGLGKTHLMQAIAHYRLEMYPNAKVYYVSTERFTNDLITAIRQDNMEDFRSYYRSADFLLIDDIQFIKGKEYTQEEFFHTFNSLHEAGKQVVVASDRAPQRIPGLQDRLISRFSMGLIADIQVPDLETRMAILQKKAEYDRIRLPKEVIEYIASHYTSNIRELEGALIRAIAYTSLSNVAMTVENIAPVLNPPVEKVAAAPETIITIVAQHYQLKVEELLSNSRRREVSLARQVGMYLMRQHTDLSLPRIGEAFGGKDHTTVMYSCDKITQLQQKDWETSQTLTSLSHRINIAGQAPESLEHHHHHH | not soluble
MVIWFFYGFRKIMHLSLKRIIVKCKMSQLDRTSLIQYFNSNGVLISPEALDKLIKYSSSSLIEDLIKNSDGYIDEKYVERYVSRPKVRNDYEVYLPDVRFNASIEDFRKMFVSKYEKLSKIITSSSSMRGSISIKTAKRSQGEVKVVGMVSEVSMTKNGHKRIVIEDLDDSITAIVMKDRGPVNEIILEDEVIGIIGSVSQSSKDPVIFVNEIIRPDIPYRVIDEEKHEPVYVASISDIHVGSKTFRKNEFEAMVRWISGSDPDASRVKYLILSGDVVDGIGVYPDQENDLEILNPLEQYANLAEYLVDVPEDVKVFVMPGNHDTVRLSEPQPVFPGKIRDLFEPNVAFLPNPYNLKLEGKNVLVYHGMSLNDMIELIPGANYDSIGKAIEAILVRRHLSPKYGGNTPMIPSAVDYHVIEEVPDIFITGHIHSHYIGNYKGVRYVNSSTWQSQTEYQKMMNFNPKPSKLTLFDLYSRSVIVKDFDTTLLEHHHHHH | not soluble
MDYTIIDAHAHLWLRQDTVVDGFPIRTLENGRSLFMGEIRQMVPPFMIDGVNSAEVFLSNMDYAQVSAAVITQEFIDGIQNDYLMEVVSRYPDRFFVCGMCEFRKPGYLEQAKELIGKGFKAIKIPAQRLLLKEGRVMLNCPEMMQMFRWMEERGVILSVDLAEGAIQVLEMEEIIQECPRLKIAVGHFGMVTLPDWKEQIKLARHPNVMIESGGITWLFNDEFYPFKGAIKAIREAAELVGMEKLMWGSDYPRTITAITYKMSYDFVVKSPELSEAEKTLFLGGNARKFYGFAELPELPYIKNMSE | not soluble
SSDVTFLVEGRPFYAHKVLLFTASPRFKALLSSKPTNDNTCIEIGYVKYPIFQLVMQYLYYGGPESLLIKNNEIMELLSAAKFFQLEALQRHCEIICAKSINTDNCVDIYSHAKFLGVTELSAYCEGYFLKNMMVLIENEAFKQLLYDKNGEGAGQDVLQDLQRTLAIRIQSIHLSSSKGSVV | soluble
MVDMAVTPVALLEASHLHYHVQQQALINDVSLHIASGEMVAIIGPNGAGKSTLLRLLTGYLSPSHGECHLLGQNLNSWQPKALARTRAVMRQYSELAFPFSVSEVIQMGRAPYGGSQDRQALQQVMAQTDCLALAQRDYRVLSGGEQQRVQLARVLAQLWQPQPTPRWLFLDEPTSALDLYHQQHTLRLLRQLTRQEPLAVCCVLHDLNLAALYADRIMLLAQGKLVACGTPEEVLNAETLTQWYQADLGVSRHPESALPQIYLRQ | not soluble
MSLPRGLELLIAQTILQGFDAQYGRFLEVTSGAQQRFEQADWHAVQQAMKNRIHLYDHHVGLVVEQLRCITNGQSTDAAFLLRVKEHYTRLLPDYPRFEIAESFFNSVYCRLFDHRSLTPERLFIFSSQPERRFRTIPRPLAKDFHPDHGWESLLMRVISDLPLRLRWQNKSRDIHYIIRHLTETLGTDNLAESHLQVANELFYRNKAAWLVGKLITPSGTLPFLLPIHQTDDGELFIDTCLTTTAEASIVFGFARSYFMVYAPLPAALVEWLREILPGKTTAELYMAIGCQKHAKTESYREYLVYLQGCNEQFIEAPGIRGMVMLVFTLPGFDRVFKVIKDRFAPQKEMSAAHVRACYQLVKEHDRVGRMADTQEFENFVLEKRHISPALMELLLQEAAEKITDLGEQIVIRHLYIERRMVPLNIWLEQVEGQQLRDAIEEYGNAIRQLAAANIFPGDMLFKNFGVTRHGRVVFYDYDEICYMTEVNFRDIPPPRYPEDELASEPWYSVSPGDVFPEEFRHWLCADPRIGPLFEEMHADLFRADYWRALQNRIREGHVEDVYAYRRRQRFSVRYGEMLFEGHHHHHH | not soluble
DELCVVCGDKATGYHYRCITCEGCKGFFRRTIQKNLHPSYSCKYEGKCVIDKVTRNQCQECRFKKCIYVGMATDLVLDDSKRLAKRKLIEENREKRRREELEK | soluble
MFGISFSELLLVGLVALLVLGPERLPGAARTAGLWIGRLKRSFNTIKQEVEREIGADEIRRQLHNEHILSMEREAQKLLAPLTGQNPPQETPPPAAESPAPSVPTPPPTSTPAVPPADAAAPPAVAASTPPSPPSETPRNPLEHHHHHH | not soluble
MSLSEIKRKFDAVSGKYDEQRRKFIPCFDDFYGVSVSIASVDTENPDILDLGAGTGLLSAFLMEKYPEATFTLVDMSEKMLEIAKNRFRGNLKVKYIEADYSKYDFEEKYDMVVSALSIHHLEDEDKKELYKRSYSILKESGIFINADLVHGETAFIENLNKTIWRQYVENSGLTEEEIAAGYERSKLDKDIEMNQQLNWLKEAGFRDVSCIYKYYQFAVMFGRKTEGHHHHHH | soluble
GIHMGKIKRRAITEHEKRALRHYFFQLQNRSGQQDLIEWFREKFGKDISQPSVSQILSSKYSYLDNTVEKPWDVKRNRPPKYPLLEAALFEWQVQQGDDATLSGETIKRAAAILWHKIPEYQDQPVPNFSNGWLEGFRKRHILH | soluble
